In a protein production outcome set (Wang et al. 2014):

Assay: label from the status in PepcDB records

## MDGRDLVRSVKAVGSGGAAGGLRTVRAAWRRRRADASGLPRRGAERARVPGPVQGVVPGPGGGVIRFARSELRITVAVNGAVFWGWDGAGPEPSYALAGRCPEPDPRAVLEPDKDGGWQVVAERGTVMVSRHGAVEVRTPGGVTLRRDLPPRWWEPADGGAAHWMQRSEVAADARFFGLGGRAAGPRLRGGTYRLWNTDPGHAVGPGDDPLYLTMPVQLVVADAATHLVFHDTSWDGTVTLREGEEGAGSGHDRAGTSELRMDGGPLRCWVMMGTPARVLHTWASLTGAPALPPAWALGHHHARRGSGSEQEVRGVVSGYQERGLPLDAVHLDNDHYDAHQVFTVDRDRFPKLPVLAEELRRDGIRLVSVVDPAVRAEPGNAVYDAGSAQDAFVRDAAGRVVEGVVWPGESVYPDFTHARVRKWWGGLYEERLAQGFAGFWHDLNEPVSFTAFGENTLPRSARHLLEGRGGDHREAHNVYALGMARAGYEGLRELSPQERPFIFSRSGWSGMQRYGGAWSGDVTTGWPGLRASLSLVIGLGLCGVPYSGPDVGGFDGSPSPELYLRWFQLGSYLPLFRTRAGLRAGRRELWEFGEDVLEHARVALVERRRLLPYFMTLAHLARRTGAPYVRPVWWGAPEDRALRDCEDAFLLGDSLLVAPVLDPGADRRAVQLPRGRWYDTVTEKAYDGPGQVLIGAPLSRIPVLARAGAVLPVRGDGGRLELEVWRPARGRTGGGLVVPDSGDGWDEPEIEQYVTRLRGQRVVVERDGDEGPGEPSYPVRVRGLPQA
  protein production: failed

## MDGSEDDPTIFSARCLPSDPRLWATVTNSYLGTRVYHDTIHINGVYNGAVGDTHRASLPSPLNVQLEAPAGTEQLTETFTLDTNTGSFLHTLEGPSFRASQRIYAHRVLPHVLVFSVSIARLTTGNKPITVPLRADFSPESPDLDLRVGPDFQGLRYLHGHVLNPEQPGEPQQEVHMLWMPVPPALTLGEEEKDRTWEFLTVVGSSQAEAQDCFAEALQLQTRGVLYTIHADSWGRLWAGCGLDVAGPLALRQALRGSLYYLFSELPQPGTQGFISHGLSPGGLSNGSKEECYWGHIFWDQDIWMFPNILMFHPEAARAILEYRVRTLGGALKNGQNLGYQGAKFAWESASTGLEVCPEDIYGTQEIHINGAVALAFQLYYYYTQDSKLFQEDGGWDVVSSVAEFWCSRVEWSSQDKMYHLKGVMPPDEYHSGVNNSVYTNVLVQNSLHFAAALAKDLGLPIRKQWLEVADRIKIPFDSEQNFHPEFDGYERGEEVKQADVVLLGYPVPFPLTPDIRRKNLETYEAVTSPQGPAMTWSMFAVGWMELRDPSRAQVHLSRSFANVTEPFKVWTENADGSGAVNFLTGMGGFLQAALFGCTGFRITEAGVTFDPLCPDLVSRVSVSGISYLGNKINFAFSKDSVTLEVTARAEPWAPLLEAELWPSLAHLPLTPGQKVSFPHSAGRIQRSSP
  protein production: failed

## MDHFSYRNTNKMVRTHVVVGSRPCCFSCAMEEKDPCVRKAWLELSLRDMHMIRDDTELALTLSFIWRYAMADPENPELPSLGVFECMTRLMKKGLEDVEWVMTGQNVYVPYYAAHIIGSYTMKKPDFATKAVESGVIAPLLELMRRKMSWVEQRVVVRALGHLASYETTFEAVAAYEDEVVRLAMEIAMTCVDVVYEEFVSVQEKEGRVRYHSDLLTRGLGGLEMEDRKAEEWASQLQCWSLHLLNCFAYKQKCISLICNKTFLKELSQMWGGLVNHTSPSGIGLIRILCYSKQGRRHVSGSREMILSLCNLSRSSDDWQYMGIDCLLLLLKDQATRYNVLEMSLFYLVDLVEVKALNVRKNLGDRITKVLLMHYCKTKKGCAYSHKAQKALKELWRNKVERRRRERKFMSKNQDFLRETSVVVYLIKQQANQLLHVGDIEGAIKCYTEAIGLCPLKLRRKRMNLYSERGECYLLLGDVDAAISDCTRALCLSEPVNSHGKSLWTRSRAYDIKGLSRESLMDCIMFVNGRCFRGNIPYYAAQMISKQMEATWLFEKARASKLGRMMLKEKFHLTGIFIFLYICMNISS
  protein production: failed

## MDHKDYSRQNAERRLLLSKDEERIRDELEMEIERNLEGEFKDGIYNLALKLRRLYEQRREREELFDVSMRKSKRVLEVNINIKMEGDTKIEITEKKKEVDNEKTKKAENSDKRKKFVAVGEDKTGKEKMKNQTRAHELRWKW
  protein production: failed

## MDHLPMPKFGPLAGLRVVFSGIEIAGPFAGQMFAEWGAEVIWIENVAWADTIRVQPNYPQLSRRNLHALSLNIFKDEGREAFLKLMETTDIFIEASKGPAFARRGITDEVLWQHNPKLVIAHLSGFGQYGTEEYTNLPAYNTIAQAFSGYLIQNGDVDQPMPAFPYTADYFSGLTATTAALAALHKVRETGKGESIDIAMYEVMLRMGQYFMMDYFNGGEMCPRMSKGKDPYYAGCGLYKCADGYIVMELVGITQIEECFKDIGLAHLLGTPEIPEGTQLIHRIECPYGPLVEEKLDAWLATHTIAEVKERFAELNIACAKVLTVPELESNPQYVARESITQWQTMDGRTCKGPNIMPKFKNNPGQIWRGMPSHGMDTAAILKNIGYSENDIQELVSKGLAKVED
  protein production: not failed

## MDHSLNSLNNFDFLARSFARMHAEGRPVDILAVTGNMDEEHRTWFCARYAWYCQQMMQARELELEH
  protein production: not failed

## MDIEIENHPLEPFLPANARLLMLGSFPPQKKRWSMDFYYPNLNNDMWRIVGLLFFNNKDYFLNETRKAFCRERIISFLNDKGIALFDTASAIRRLQDNASDKFLEVVQPTDISRLLGQLPECKAIVTTGQKATDTLRAQFEVEEPKVGDFSEFVFDGRPVRLYRMPSSSRAYPLALDKKAAAYRTMYQDLQMLNIELEHHHHHH
  protein production: not failed

## MDIEVDIIEFKVPLENNKTIFIWDIQPTFTEAYIYESLWSVYSAFGDLYLLKVCPNATVAEPGFYALVKFYSSAQASKAQRATDKQCLFQSSPLKVRLSTKQNLSFYSSKPLCLSKCHNLANHYLGFGGWTTRIVTLKDLSNCVDAGCQEETGDQGVLLKYGCIMELSFPHHGMSCQGVGVAEEVLDSDQDPEEKLRKRGALMKRAKDKAMEVAFEKVLLLILGNGKVAIEIKIDPDEIVPEENSERVIKVNDISWTHIESADSNAEEDFLWDLTEDLPY
  protein production: failed

## MDIGRKRDVFLIILPALCAFALALIPTFRYTVPLTWDVYYHIHNATLYMGRGIVFWDPLTSAPHGRPLYYPPLFHIMLLFLSKITGLGFFTVSRFMQPVFAFLILLSFSYVSGKLYGPLAGFLTGMFLFSSLFFMRMMFPIPESLAMISIPLFVYGYYRSMECCSRLYPVLTGLLLGLMLMTHILSASIILAVVTLSTIVLYIGKYDIRPWNLLIILGSGLLLASVWYAPLIVKYGFVFRSPATSSLPLEGYITHLGVLLTILSLAGIVHAAGRREKKDVIMAVWTVFVLALTAAYLLGLKVLSDRILYFALFPMATLSANLFNSIRINNGKWSFYAIILLISLYCIYDGYSLASSIKLEVSDSELDIAEWFRYNGDHATVVVSDYHIQPAIVAVSGQPVSAGGYAPGTIRSINVEKYISSFNYTKHDIMRDRVGYIILDNEERTPPYSRLVYRNRDFSVYRVNV
  protein production: failed

## MDIHQELKELSKFLSEYSTSLMAVGVQTSRIVRNTSRIAESFGFFCDMTIFQKTIIMTLRDADNSHSYSTVNKIKPMGLNFAINSALSTLSWEAYDEHLSLSELQRRYHEIVSKPRESKWLVLILVAFANASFCRLFQGDFISMGIVFVATLAGFFVRTELMGRHWNHLAIFIISSFIASMIGSTGYLMHWGDTPDMALGTSVLYLIPGVPLINAIMDIIDGHVLAGTSRFINACLLIICIAIGLSMTLLITGISTL
  protein production: failed

## MDIIPILLLAAGQSRRMGGADKLMQEIDGMPLLRRTALRAIPVAPVIAALPPAPHPRHGALVGLTLDIVEVPDAAEGMNASLRRAVAALPPEAPAAMILLADLPDLTESDLNTVRRAVDFSQKNLIWRGATEDGQPGHPVVFHRCLFPQLLALRGDQGAQPLVRDHADRVALVPLPGQHARTDLDTPEAWADWRARQQ
  protein production: failed

## MDIITKMQVDVPRETVFEAFVDPEKIGGFWFSSSSERWEQGKTITLRYEEYDAELNINIERVEDNQLIAFTWGAHPITIQFEESEAGTVVTTTEKDFDTQDVKQLLGQKEGWVYMLSCLKVYLEHGVTIRAAILLEHHHHHH
  protein production: failed

## MDIKVSGRKTTVTDALRAHVDEKIGEALKVFDIEPMTVDVVLRYEKNPSNPNPAIVEVTARARGSVIRVAEHGADMYAAIDLSADKVTRQLRKFKTKVVDNRQGGASAADVAPVERVEDLADLLLPEEDDDLLVREKVIDVTPMTEEQALVQTDLLGHDFYVFENATTGLINVVYHRKNGGYGIIKPRIETLDE
  protein production: failed

## MDINKLKLTPDSSIKEALKIVGQERVRLGIIVDKKDKFLGVISDSNIRKALISGKTLKDSIKDIYTKNPITIKENTSKEQLLKISAKTDIYDFPVLDEKGQILSIKSISSLLKANPNSIIIMAGGLGSRLKELTKDTPKPMLKVGKKPILESIIQRLKNQNFENFIFCVNYKKQIIEDYFQKGQKFGVKISYIKERKKLGTAGALSLIKQEFKESFIVMNADILTELDFNALLKAHKKSKALMSVCVREFEQQIPYGVITQKQGFIENIEEKPTQKFLVSAGIYVLENEILNLIAKNEYLDMPELIKLVLQKGKVNTYIINDYWIDIGRPDEFLKANEDFKLEHHHHHH
  protein production: not failed

## MDINMKKHKTIQFIVAALFIASACTDDRDNLMVNDQIGLLHSTYTETEIFRGMDTPYQLFVIKSGKGKQETEVSISVDETVLQSYNTDNGTSIQLLPSDCYTILQPALRLNDSDYRKAFDIKWNADRLSDLLSTGKEYGLPIQMSVVQNFISADDERLKTIIVPTIKEPYLQMDVPGMSPVTDFMPTFGDLNERELFVKIRTNYSNDEDISFQIEVDPQLVIDYNTAHGTAYKMLPESSFTVDNKGVILTGMKETFIKIKYHKKGLIPEEGTYLFGDYVLPLRITSVSKYGISPDAASKLYTVKFQPDPIDKKGWSVIDFNNCCTQDGGWYLNMGWGVESLIDNNPGTQWLCRWDVKEPLPYYFVFDMGKEYTLFRFGFANPVAPAAHVWAGTSKAGYVEASIDNENWVKLKDWTSPKIGEPNVNMDVPATQARYIRFVITDTYPTYDGLRVSLGEVYAWGM
  protein production: failed

## MDIQNMPREQLGVCAEGNLHSVYLMFNANDNVESQLRPCIANVAQYIYELTDQYSDSAFNGFVAIGANYWDSLYPESRPEMLKPFPAMQEGNREAPAIEYDLFVHLRCDRYDILHLVANEISQMFEDLVELVEEERGFRFMDSRDLTGFVDGTENPKGRHRQEVALVGSEDPEFKGGSYIHVQKYAHNLSKWHRLPLKKQEDIIGRTKQDNIEYESEDKPLTSHIKRVNLKDENGKSIEILRQSMPYGSLKEQGLMFISTCRTPDHFEKMLHSMVFGDGAGNHDHLMHFTSALTGSSFFAPSLDFLMQFDN
  protein production: not failed

## MDIQRSILIVALAVVSYLLVLQWNKDYGQPELPAASASMNTTQGLPDTPSASGTSSDVPTAQSSAAGSEAADKPVAVSDKLIQVKTDVLDLAIDPRGGDIVQLGLLQYPRRLDRPDVPFPLFDNGRERTYLAQSGLTGADGPDASSAGRPLFRSAQSSYQLADGQNELVVDLSFSHDGVNYIKRFTFHRGLKADCSDKEKAQKKIECINENAYQVGVSYLIDNQSGKTWSGNLFAQLKRDGSADPSSTTATGVSTYLGAAVWTPDSPYKKISTKDMDKEQFKESVQGGWVAWLQHYFVTAWVPTKGEQHQVMTRKDGQGNYIVGFTGPTLSVPAGSKVETDLTLYAGPKLQKHLKELSPGLELTVDYGFLWFIAQPIFWLLQHIHSLIGNWGWSIIALTVLIKLAFFPLSAASYRSMARMRAVSPKMQAIKEQHGDDRQKMSQAMMELYKKEKINPLGGCLPILVQMPVFLSLYWVLLESVEMRQAPWLGWITDLSVKDPFFILPIVMGGTMLIQQMLNPTPPDPMQAKVMKLMPIIFTFFFLWFPAGLVLYWVVNNCLSIAQQWYITRKIEAAAKTA
  protein production: failed
